Reference: article PMC4434323

These sequences were tested on T1, C34D1.1 (C34D1.1) (Caenorhabditis elegans).
T1 sequence: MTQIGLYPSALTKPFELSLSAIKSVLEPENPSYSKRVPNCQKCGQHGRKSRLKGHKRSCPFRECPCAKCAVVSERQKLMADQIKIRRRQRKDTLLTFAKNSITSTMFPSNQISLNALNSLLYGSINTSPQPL

| Sequence | binding signal (PBM E-score (-0.5 to 0.5)) |
| --- | --- |
| AAACATTT (double strand) [8-mer AAACATTT] | 0.473 |
| AGTGTTTC (double strand) [8-mer AGTGTTTC] | 0.47 |
| ATAGTTTC (double strand) [8-mer ATAGTTTC] | 0.47 |
| ATGAAACA (double strand) [8-mer ATGAAACA] | 0.486 |
| ATTGTTTC (double strand) [8-mer ATTGTTTC] | 0.487 |
| CATGTTTC (double strand) [8-mer CATGTTTC] | 0.469 |
| GAAACATA (double strand) [8-mer GAAACATA] | 0.488 |
| GTGAAACA (double strand) [8-mer GTGAAACA] | 0.484 |
| TGAAACAA (double strand) [8-mer TGAAACAA] | 0.485 |
| TGTTGCAA (double strand) [8-mer TGTTGCAA] | 0.469 |
| TGTTTCAA (double strand) [8-mer TGTTTCAA] | 0.485 |

What follows are sequences tested against dmd-4 (C27C12.6) (Caenorhabditis elegans) (UniProt Q18248).
Chain of dmd-4 (C27C12.6) (Caenorhabditis elegans) (Q18248 1-114): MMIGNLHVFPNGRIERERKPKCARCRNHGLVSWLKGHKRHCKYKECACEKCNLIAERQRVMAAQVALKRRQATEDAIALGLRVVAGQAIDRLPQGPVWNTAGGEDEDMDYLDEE

| Sequence | binding signal (PBM E-score (-0.5 to 0.5)) |
| --- | --- |
| AATGTATC (double strand) [8-mer AATGTATC] | 0.494 |
| ATGATACA (double strand) [8-mer ATGATACA] | 0.485 |
| ATGTATCA (double strand) [8-mer ATGTATCA] | 0.493 |
| ATTGTATC (double strand) [8-mer ATTGTATC] | 0.491 |
| CATGTATC (double strand) [8-mer CATGTATC] | 0.483 |
| GATACATA (double strand) [8-mer GATACATA] | 0.482 |
| TAGATACA (double strand) [8-mer TAGATACA] | 0.491 |
| TGATACAA (double strand) [8-mer TGATACAA] | 0.489 |
| TGTAACAA (double strand) [8-mer TGTAACAA] | 0.483 |
| TGTATCAA (double strand) [8-mer TGTATCAA] | 0.496 |

These sequences were tested against T2, dmd-6 (F13G11.1) (Caenorhabditis elegans) (UniProt O62159).
T2 sequence: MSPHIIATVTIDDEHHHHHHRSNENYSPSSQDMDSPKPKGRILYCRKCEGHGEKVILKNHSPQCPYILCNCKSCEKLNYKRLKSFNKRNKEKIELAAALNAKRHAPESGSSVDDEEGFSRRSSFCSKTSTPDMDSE

| Sequence | binding signal (PBM E-score (-0.5 to 0.5)) |
| --- | --- |
| AAAAAGTT (double strand) [8-mer AAAAAGTT] | 0.484 |
| AAAAGTTA (double strand) [8-mer AAAAGTTA] | 0.486 |
| AAAATTTA (double strand) [8-mer AAAATTTA] | 0.471 |
| AAATATTT (double strand) [8-mer AAATATTT] | 0.482 |
| AAATGTTA (double strand) [8-mer AAATGTTA] | 0.475 |
| AAATTTAT (double strand) [8-mer AAATTTAT] | 0.479 |
| AAATTTTA (double strand) [8-mer AAATTTTA] | 0.477 |

The sequences below were run against dmd-5 (F10C1.5) (Caenorhabditis elegans) (UniProt Q19291).
Chain of dmd-5 (F10C1.5) (Caenorhabditis elegans) (Q19291 1-125): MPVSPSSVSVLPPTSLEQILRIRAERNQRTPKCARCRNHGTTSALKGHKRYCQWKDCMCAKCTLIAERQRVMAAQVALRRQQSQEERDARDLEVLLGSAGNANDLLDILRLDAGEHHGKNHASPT

| Sequence | binding signal (PBM E-score (-0.5 to 0.5)) |
| --- | --- |
| AATGTATC (double strand) [8-mer AATGTATC] | 0.485 |
| AATTGTTA (double strand) [8-mer AATTGTTA] | 0.478 |
| ACAGTAAC (double strand) [8-mer ACAGTAAC] | 0.482 |
| ACAGTTGC (double strand) [8-mer ACAGTTGC] | 0.489 |
| ACTGTAAC (double strand) [8-mer ACTGTAAC] | 0.49 |
| ACTGTATC (double strand) [8-mer ACTGTATC] | 0.484 |
| ACTGTTGC (double strand) [8-mer ACTGTTGC] | 0.488 |
| ATGTATCA (double strand) [8-mer ATGTATCA] | 0.486 |
| ATGTTACA (double strand) [8-mer ATGTTACA] | 0.475 |
| ATTGTAAC (double strand) [8-mer ATTGTAAC] | 0.481 |
| ATTGTATC (double strand) [8-mer ATTGTATC] | 0.486 |
| ATTGTTAC (double strand) [8-mer ATTGTTAC] | 0.476 |
| TGTAACAA (double strand) [8-mer TGTAACAA] | 0.484 |
| TGTATCAA (double strand) [8-mer TGTATCAA] | 0.49 |
| TGTTACAA (double strand) [8-mer TGTTACAA] | 0.484 |

Each sequence was assayed against T3, mab-3 (Y53C12B.5) (Caenorhabditis elegans) (UniProt O18214).
T3 sequence: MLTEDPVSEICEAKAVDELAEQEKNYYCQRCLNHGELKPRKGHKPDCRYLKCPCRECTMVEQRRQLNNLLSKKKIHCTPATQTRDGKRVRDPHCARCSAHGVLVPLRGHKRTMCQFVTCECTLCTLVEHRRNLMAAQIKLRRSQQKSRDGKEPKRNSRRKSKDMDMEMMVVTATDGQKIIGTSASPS

| Sequence | binding signal (PBM E-score (-0.5 to 0.5)) |
| --- | --- |
| ACGCAACA (double strand) [8-mer ACGCAACA] | 0.484 |
| ATGCAACA (double strand) [8-mer ATGCAACA] | 0.482 |
| ATGTTGCC (double strand) [8-mer ATGTTGCC] | 0.477 |
| ATGTTGCG (double strand) [8-mer ATGTTGCG] | 0.499 |
| ATTGTTGC (double strand) [8-mer ATTGTTGC] | 0.486 |
| CCGCAACA (double strand) [8-mer CCGCAACA] | 0.482 |
| CGCAACAA (double strand) [8-mer CGCAACAA] | 0.487 |
| GATGTTGC (double strand) [8-mer GATGTTGC] | 0.495 |
| GCAACATA (double strand) [8-mer GCAACATA] | 0.493 |
| GTTGCAAC (double strand) [8-mer GTTGCAAC] | 0.479 |
| TCGCAACA (double strand) [8-mer TCGCAACA] | 0.499 |
| TGGCAACA (double strand) [8-mer TGGCAACA] | 0.481 |
| TGTTGCAA (double strand) [8-mer TGTTGCAA] | 0.497 |

The sequences below were run against T4, T22H9.4 (T22H9.4) (Caenorhabditis elegans) (UniProt Q9TXN8).
T4 sequence: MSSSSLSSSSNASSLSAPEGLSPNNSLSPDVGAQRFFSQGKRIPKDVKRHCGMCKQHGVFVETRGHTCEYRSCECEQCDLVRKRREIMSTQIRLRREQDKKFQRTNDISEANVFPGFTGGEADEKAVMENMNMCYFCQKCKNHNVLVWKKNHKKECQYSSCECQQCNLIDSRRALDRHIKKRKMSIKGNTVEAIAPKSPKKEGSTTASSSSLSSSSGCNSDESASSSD

| Sequence | binding signal (PBM E-score (-0.5 to 0.5)) |
| --- | --- |
| ATTCAACA (double strand) [8-mer ATTCAACA] | 0.49 |
| ATTGCAAC (double strand) [8-mer ATTGCAAC] | 0.493 |
| ATTTCAAC (double strand) [8-mer ATTTCAAC] | 0.497 |
| ATTTTAAC (double strand) [8-mer ATTTTAAC] | 0.491 |
| CGTTGCAA (double strand) [8-mer CGTTGCAA] | 0.488 |
| GTTAAAAA (double strand) [8-mer GTTAAAAA] | 0.494 |
| GTTGAAAA (double strand) [8-mer GTTGAAAA] | 0.495 |
| GTTGCAAA (double strand) [8-mer GTTGCAAA] | 0.493 |
| GTTGCAAC (double strand) [8-mer GTTGCAAC] | 0.489 |
| TGTAGAAA (double strand) [8-mer TGTAGAAA] | 0.489 |
| TGTCGAAA (double strand) [8-mer TGTCGAAA] | 0.495 |
| TGTTAAAA (double strand) [8-mer TGTTAAAA] | 0.496 |
| TGTTACAA (double strand) [8-mer TGTTACAA] | 0.488 |
| TGTTGAAA (double strand) [8-mer TGTTGAAA] | 0.499 |
| TGTTGCAA (double strand) [8-mer TGTTGCAA] | 0.499 |

These sequences were tested against T5, efl-2 (Y48C3A.17) (Caenorhabditis elegans) (UniProt A5HWA8).
T5 sequence: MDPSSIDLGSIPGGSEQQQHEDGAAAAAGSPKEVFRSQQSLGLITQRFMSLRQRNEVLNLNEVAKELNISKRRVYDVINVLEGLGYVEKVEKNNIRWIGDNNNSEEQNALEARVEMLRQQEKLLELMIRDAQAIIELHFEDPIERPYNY

| Sequence | binding signal (PBM E-score (-0.5 to 0.5)) |
| --- | --- |
| ACCCGCGC (double strand) [8-mer ACCCGCGC] | 0.486 |
| ACGCGCGC (double strand) [8-mer ACGCGCGC] | 0.49 |
| AGCGCGCC (double strand) [8-mer AGCGCGCC] | 0.488 |
| AGGCGCGC (double strand) [8-mer AGGCGCGC] | 0.487 |
| ATGCGCGC (double strand) [8-mer ATGCGCGC] | 0.485 |
| CGCGCGCA (double strand) [8-mer CGCGCGCA] | 0.491 |
| CGCGCGCC (double strand) [8-mer CGCGCGCC] | 0.488 |
| GAGCGCGC (double strand) [8-mer GAGCGCGC] | 0.486 |
| GCGCGCAC (double strand) [8-mer GCGCGCAC] | 0.487 |
| GCGCGCCA (double strand) [8-mer GCGCGCCA] | 0.49 |
| GCGCGCGA (double strand) [8-mer GCGCGCGA] | 0.485 |

What follows are sequences tested against T6, fkh-9 (K03C7.2) (Caenorhabditis elegans) (UniProt Q21187).
T6 sequence: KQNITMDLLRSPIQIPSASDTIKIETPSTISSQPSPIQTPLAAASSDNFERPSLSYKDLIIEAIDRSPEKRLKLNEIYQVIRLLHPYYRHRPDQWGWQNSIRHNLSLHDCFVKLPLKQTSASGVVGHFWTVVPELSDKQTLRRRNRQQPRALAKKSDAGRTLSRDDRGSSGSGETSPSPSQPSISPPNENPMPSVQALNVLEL

| Sequence | binding signal (PBM E-score (-0.5 to 0.5)) |
| --- | --- |
| AAAAACAA (double strand) [8-mer AAAAACAA] | 0.49 |
| AAAACAAC (double strand) [8-mer AAAACAAC] | 0.491 |
| AACAACAA (double strand) [8-mer AACAACAA] | 0.487 |
| AATAACAA (double strand) [8-mer AATAACAA] | 0.494 |
| CAAAACAA (double strand) [8-mer CAAAACAA] | 0.494 |
